Patent publication US20240000840A1

Biological target: CD20 on CD20+ human Burkitt's lymphoma cell lines (Ramos, Raji) (human) (UniProt P11836)
Experiment: cell-based or functional assay

UniProt P11836, sequence (P11836 whole entry): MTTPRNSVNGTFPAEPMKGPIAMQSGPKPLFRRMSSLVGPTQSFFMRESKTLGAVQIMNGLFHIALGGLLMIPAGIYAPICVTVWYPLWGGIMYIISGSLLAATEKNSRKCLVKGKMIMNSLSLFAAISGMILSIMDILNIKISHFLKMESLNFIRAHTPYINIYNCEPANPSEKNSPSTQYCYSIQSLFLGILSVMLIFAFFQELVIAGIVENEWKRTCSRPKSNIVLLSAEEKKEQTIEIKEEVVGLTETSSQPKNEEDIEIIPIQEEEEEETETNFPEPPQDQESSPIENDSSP

Rituximab (Mabthera or Rituxan) (antibody)
% of Raji alive, AB-101 + RTX, 24 h, batch 19AB101PN001: 13.8% | % of Raji alive, AB-101 + RTX, 24 h, batch 19AB101PN004: 21.1% | % of Raji alive, AB-101 + RTX, 24 h, batch 19AB101PN005: 34.1% | % of Raji alive, AB-101 + RTX, 24 h, batch 20AB101PG001: 25.8% | % of Raji alive, AB-101 + RTX, 24 h, batch 20AB101PG002: 14.3% | % of Raji alive, AB-101 + RTX, 24 h, batch 20AB101PN001: 16.8% | % of Raji alive, AB-101 + RTX, 24 h, batch 20AB101PN002: 26.6% | % of Raji alive, AB-101 + RTX, 24 h, batch 20AB101PN003: 28.4% | % of Raji alive, AB-101 + RTX, 24 h, batch 20AB101PN004: 34.3% | % of Raji alive, AB-101 + RTX, 48 h, batch 19AB101PN001: 6.6% | % of Raji alive, AB-101 + RTX, 48 h, batch 19AB101PN004: 8.9% | % of Raji alive, AB-101 + RTX, 48 h, batch 19AB101PN005: 18.6% | % of Raji alive, AB-101 + RTX, 48 h, batch 20AB101PG001: 11.7% | % of Raji alive, AB-101 + RTX, 48 h, batch 20AB101PG002: 5.5% | % of Raji alive, AB-101 + RTX, 48 h, batch 20AB101PN001: 9.2% | % of Raji alive, AB-101 + RTX, 48 h, batch 20AB101PN002: 12.5% | % of Raji alive, AB-101 + RTX, 48 h, batch 20AB101PN003: 13.3% | % of Raji alive, AB-101 + RTX, 48 h, batch 20AB101PN004: 18.6% | % of Raji alive, AB-101 + RTX, 72 h, batch 19AB101PN001: 4.5% | % of Raji alive, AB-101 + RTX, 72 h, batch 19AB101PN004: 9.4% | % of Raji alive, AB-101 + RTX, 72 h, batch 19AB101PN005: 11.5% | % of Raji alive, AB-101 + RTX, 72 h, batch 20AB101PG001: 9.6% | % of Raji alive, AB-101 + RTX, 72 h, batch 20AB101PG002: 3.6% | % of Raji alive, AB-101 + RTX, 72 h, batch 20AB101PN001: 7.5% | % of Raji alive, AB-101 + RTX, 72 h, batch 20AB101PN002: 13.9% | % of Raji alive, AB-101 + RTX, 72 h, batch 20AB101PN003: 12.3% | % of Raji alive, AB-101 + RTX, 72 h, batch 20AB101PN004: 18.3% | % of Ramos alive, AB-101 + RTX, 24 h, AVE of 9 batches (raw data table; differs from 47.6 in Table 26): 47.9% | % of Ramos alive, AB-101 + RTX, 24 h, batch 19AB101PN001: 29.5% | % of Ramos alive, AB-101 + RTX, 24 h, batch 19AB101PN004: 37.1% | % of Ramos alive, AB-101 + RTX, 24 h, batch 19AB101PN005: 59.7% | % of Ramos alive, AB-101 + RTX, 24 h, batch 20AB101PG001: 54.1% | % of Ramos alive, AB-101 + RTX, 24 h, batch 20AB101PG002: 22.1% | % of Ramos alive, AB-101 + RTX, 24 h, batch 20AB101PN001: 46.2% | % of Ramos alive, AB-101 + RTX, 24 h, batch 20AB101PN003: 57.7% | % of Ramos alive, AB-101 + RTX, 24 h, batch 20AB101PN004: 54.8% | % of Ramos alive, AB-101 + RTX, 48 h, batch 19AB101PN001: 12.1% | % of Ramos alive, AB-101 + RTX, 48 h, batch 19AB101PN004: 18.6% | % of Ramos alive, AB-101 + RTX, 48 h, batch 19AB101PN005: 38.1% | % of Ramos alive, AB-101 + RTX, 48 h, batch 20AB101PG001: 37.4% | % of Ramos alive, AB-101 + RTX, 48 h, batch 20AB101PG002: 7.7% | % of Ramos alive, AB-101 + RTX, 48 h, batch 20AB101PN001: 22.8% | % of Ramos alive, AB-101 + RTX, 48 h, batch 20AB101PN002: 53% | % of Ramos alive, AB-101 + RTX, 48 h, batch 20AB101PN003: 34.4% | % of Ramos alive, AB-101 + RTX, 48 h, batch 20AB101PN004: 29.2% | % of Ramos alive, AB-101 + RTX, 72 h, batch 19AB101PN001: 6.6% | % of Ramos alive, AB-101 + RTX, 72 h, batch 19AB101PN004: 11.4% | % of Ramos alive, AB-101 + RTX, 72 h, batch 19AB101PN005: 30.9% | % of Ramos alive, AB-101 + RTX, 72 h, batch 20AB101PG001: 23.5% | % of Ramos alive, AB-101 + RTX, 72 h, batch 20AB101PG002: 4.1% | % of Ramos alive, AB-101 + RTX, 72 h, batch 20AB101PN001: 11% | % of Ramos alive, AB-101 + RTX, 72 h, batch 20AB101PN002: 40.3% | % of Ramos alive, AB-101 + RTX, 72 h, batch 20AB101PN003: 21.8% | % of Ramos alive, AB-101 + RTX, 72 h, batch 20AB101PN004: 21.3% | Viable Raji cells (%), AB-101 + RTX, 24 hrs, mean of 9 AB-101 batches (long-term ADCC, IncuCyte): 23.9% | Viable Raji cells (%), AB-101 + RTX, 48 hrs, mean of 9 AB-101 batches (long-term ADCC, IncuCyte): 11.7% | Viable Raji cells (%), AB-101 + RTX, 72 hrs, mean of 9 AB-101 batches (long-term ADCC, IncuCyte): 10.1% | Viable Ramos cells (%), AB-101 + RTX, 24 hrs, mean of 9 AB-101 batches (long-term ADCC, IncuCyte): 47.6% | Viable Ramos cells (%), AB-101 + RTX, 48 hrs, mean of 9 AB-101 batches (long-term ADCC, IncuCyte): 28.1% | Viable Ramos cells (%), AB-101 + RTX, 72 hrs, mean of 9 AB-101 batches (long-term ADCC, IncuCyte): 19% | lysis of target cells (Raji), AB-101 combined with rituximab, end of the 72 hour co-culture, E:T 1:1 (live-cell analysis, Example 9): 90% | lysis of target cells (Ramos), AB-101 combined with rituximab, end of 72 hrs co-culture, E:T 1:1 (live-cell analysis, Example 9): 80%
